Experimental data: the DeepSol protein solubility set

Experiment: soluble on expression in E. coli; label from the status in PepcDB or PDB records

MGSDKIHHHHHHMKTITTWQNNIQIVKDATNIVEISKGFSPDKKYIVTTIDEEKYLLRIGDIQEYERRKIEFQILNEMVKRNVQAQRPIEIGILEEEGVCYSIFSYLEGEDAKKLLPTYSPKKQYEIGIEAGKDLAKMHTYEAPNDTLPWYERAMKKHQKYVEAYKTCGIKIKNDDKIIKFIDENEMYLQNRPNQFQHDDFHLENIIVRDGKYVGVVDFNGYDWGDPLHDFVKIALFARDISIPYSIGQIEGYFNGRIPEEFWKLYAVYVGMTVFSSVVWTLRAAPHMLDDTLERLTVVLEDHKDFELLKPIWFQPEKIDIKK
soluble on expression in E. coli: not soluble

MGSSHHHHHHSSGLVPAGSHMASMTGGQQMGRGSMSLQVNLLNNTFANPFMNAAGVMCTTTEELVAMTESASGSLVSKSCTPALREGNPTPRYQALPLGSINSMGLPNNGFDFYLAYAAEQHDYGKKPLFLSMSGLSMRENVEMCKRLAAVATEKGVILELNLSCPNVPGKPQVAYDFDAMRQCLTAVSEVYPHSFGVKMPPYFDFAHFDAAAEILNEFPKVQFITCINSIGNGLVIDAETESVVIKPKQGFGGLGGRYVLPTALANINAFYRRCPGKLIFGCGGVYTGEDAFLHVLAGASMVQVGTALQEEGPSIFERLTSELLGVMAKKRYQTLDEFRGKVRTLDGTAESTR
soluble on expression in E. coli: soluble

MSDFGNPLKKFKLVFLGEQSVGKTSLITRFMYDSFDNTYQATIGIDFLSKTMYLEDRTVRLQLWDTAGQERFRSLIPSYIRDSTVAVVVYDITNSNSFHQTSKWIDDVRTERGSDVIIMLVGNKTDLSDKRQVTTDEGERKAKELNVMFIETSAKAGYNVKQLFRRIAGALPGIIKDDPVEPPNVVTMDPIRQRQIVTDEGSCWC
soluble on expression in E. coli: not soluble

MKESLLTLTEKIMFTTTVLKPTITTPITMLITTMRTLVAMKIRHYWKMMAIKDRKIQIPPVKYQMELSIRTLEINLLKNVKETEANLLKRRTDRENKRHYEFGFFYNLRIHNIYIPTSFFFFNSIV
soluble on expression in E. coli: soluble

MGFHLRGNNDFAFKRLYINLPQNSQMRAQLRRLIDNGSDTVVVSDKQDADAFLDVLSENRVKTISSLTPQGVVREYRITYRFSFQLRDAHDNLLIPPSEITLFRDLSYNETQVLAKDYEEAALYRDMQGDIVNQLVRRLASVRLPSLEHHHHHH
soluble on expression in E. coli: soluble

LDDYDWFAGNISRSQSEQLLRQKGKEGAFMVRNSSQVGMYTVSLFSKAVNDKKGTVKHYHVHTNAENKLYLAENYCFDSIPKLIHYHQHNSAGMITRLRHPVS
soluble on expression in E. coli: soluble

MPDSPAEVKTQPRSTPPSMPPPPPTSSQGATRPPSFTPHTLMNGSSHSPTAIHGAPSTPNGFSNGPATSSTASLSTQHLPPACGARQLSKLKRFLTTLQQFGSDISPEIGERVRTLVLGLVNSTLTIEEFHAKLQEATNFPLRPFVIPFLKANLPLLQRELLHCARLAKQTPAQYLAQHEQLLLDASATSPVDSSELLLEVNENGKRRTPDRTKENGSDRDPLHPDHLSKRSCTLSPAQRCSPSNGLPHPTPPPPPHYRLEDMAMAHHFRDSYRHPDPRELRERHRPLAIPGLDKKK
soluble on expression in E. coli: soluble

MQWQTKLPLIAILRGITPDEALAHVGAVIDAGFDAVEIPLNSPQWEQSIPAIVDAYGDKALIGAGTVLKPEQVDALARMGCQLIVTPNIHSEVIRRAVGYGMTVCPGCATATEAFTALEAGAQALKIFPSSAFGPQYIKALKAVLPSDIAVFAVGGVTPENLAQWIDAGCAGAGLGSDLYRAGQSVERTAQQAAAFVKAYREAVQLHHHHHH
soluble on expression in E. coli: soluble

MDTSLPSAILNNMVTATLILDDGLAIRYANPAAELLFSQSAKRIVEQSLSQLIQHASLDLALLTQPLQSGQSITDSDVTFVVDGRPLMLEVTVSPITWQRQLMLLVEMRKID
soluble on expression in E. coli: soluble

MSLDRPRCCLRGKECCINRFQQVESRWGYSGTSDRIRFTVNRRISIVGFGLYGSIHGPTDYQVNMQIIEYEKKQTLGQNDTGFSCDGTANTFRVMFKEPIEILPNVCYTACATLKGPDSHYGTKGLKKVVHETPAASKTVFFFFSSPGNNNGTSIEDGQIPEIIFYTEGHHHHHH
soluble on expression in E. coli: soluble

MLTACNGSRKGDANLSDNPLLQSSALFMEAPEFDKIKTEHFLPAFEAGMEQQLAEIDSIVNNSEAPTFENTLVAMERSGQTLKRVSNVFFGLTGANTNDELQKIEEKVSPLLAAHSDAIYLNDKLFQRVKAVYESDQSAIEPEGQKLIQEYYDAFVRAGANLSAEDKAKLMELNKEEASLTTEFGNKLIAATNAAAVIVGSKDSLDGLSETEIAKAASDAKAAGHEGKYLLNITNTTQQDYLSVLNDRTIRQRVLEASIHRTDKGDANDTQSIVLRLARLRAQKARLLGFPNYAAWKLQNQMANNPETVLAFVKSIATPYAPQAQKDAAELQAYARSKGFEGDLTAADWNYYADKLRKEKFGLDENEVKQYFVTDSVLKNGVFYAANKLYGLTFKERTDLPVYAEDVRVFDVIDQDGKQLALFYTDLYRRPTKSGGAWMSNWVDQSYLLNQKPVIYNVCNYAKGVDGQPSLINYDEVTTLFHEFGHALHGMFAAQQYPLLSGTNVARDFVEMPSQLNEHWAMDPEVFANYAKHWKTQEPMPAELVKKIQDASDFNQAYSMGENLAAVSLDQAWHTLTVEEAEAITDVAKFEEEALRKVGLYNPQIPPRYRSSYFRHIWSNGYASGYYAYLWTEVLDHNVYQWMVQNGGMTPQNGQRLRDMILSRGNTQDFNVIFTAFTGLQKPDIRDLLRARGLM
soluble on expression in E. coli: soluble

MGSDKIHHHHHHMDISRKIERLELFLEQDKDNLNLMLDLIYLSLDAGSIDIAENYLYRAQQQHPESSQLIYLSGLISCQRKNFEQGLITFNSLLSAGVRSASILYQAAYCNIQLGNPETALERLIHASELSPETEILYLLARTQYQLKNFELAVSTLTALADSDAKYAPAHSLLSQIYMDIEQWADAQASAAKALALDPNNVTANITIGFITLNSNQYDQAARHFSQALNVNDESCRTHLGLAIIDVFQQRYVEAEQHLLKALSLQNDLLPGINLLGWLYLLTDRFALARDVFDRGVEVDRSYAEMYGGIAIVDILEKDETAARKNVAIALRLDKMSYAGNFAKILLLQNAQRLSQAEKVWKNLISSPIDDTGKTLEQAVIEQIRAYLKVTLH
soluble on expression in E. coli: not soluble

MAAEEATEFYLRYYVGHKGKFGHEFLEFEFREDGKLRYANNSNYKNDTIIRKEVFLTPAVLKECKRIVSESEILKEDDNNWPEPDRVGKQELEIVLGNEHISFATSKIGSLVDCQSSNDPEGLRIFYYLVQDLKCLVFSLISLHFKIKPILEHHHHHH
soluble on expression in E. coli: not soluble

MSIHVNEANLTFHLQTDHTSYIFQIMKNGEAGQIYYGPRIHVQPTYQNLMSQEWRDATPSLNEENPNFQPATIKAEYASLGKGDFRQPAFQVTQANGSRITELTYDHYQLLTGKQRLANLPSTFDDTDDDAQTLVVSFNDRITGLALDLNYSIFPHQDVIVKSAKFTNPSSEKLVLNRALSSQLDLPDANYDLIQFSGTWARERHLYRHPLRPGMQSISSLRMASSHQQNPFMMLARPQTTDEQGAVFGFNLVYSGNFLDAIEVDQYSTSRILTGINPDEFGWNLAPQATFQTPEAILSYTSAGMNQLSQQMASFYQQHLVNPRFAHEERPVLINNWEATYFDFNEAKLMTIVNQAKRLGIEMFVLDDGWFGHRDDDTTSLGDWFVDQRKFPDGIEHFSQAVHQQGMKFGLWFEPEMVSVDSDLYQQHPDWLIHAPKSTPTPGRHQFVLDMARPEVVDYLFKLMSQMIESANLDYIKWDMNRYATEMFSSRLTSDQQLELPHRYILGVYQLYARLTQAYPNVLFESCASGGGRFDLGMMYYAPQAWTSDDTDAAERLLIQFGTSYGYPQAMMGAHVSAVPNDQMGRITSLKTRGAVAFFGDLGYELDITKMAPTELDQVKKQVAFYKCYRQLFQFGKFYRIDSPFVEDGNVTSWQVVSDDQKQAIAARYQLLNHPNAPYTRFYFKGLRPNQRYQINDDPSTYYGDELMNAGYFVPTILADGQESKDFYTQLFVVTAILEHHHHHH
soluble on expression in E. coli: soluble

MEKVLDLDVQVKANNNSNDSAGDERITSHSLCTPGCAKTGSFNSFCC
soluble on expression in E. coli: not soluble

MSLQEWTKEDSLRLRKLLDSDQELNLNQDAVRQIDFGSAVGTPRMSVEKKWMLPDESLPEALPKPKVVLSLMPYKANTPYNWDPVFQKKIRMDKNTWRGDPHYEMRHQRSYSNWAHNPMAGGVRKSLEEIRASGVRFRQLSERANGMMVNSVVMDSPIPLFGGSGVYINGGTIGGLDLMAVFTKNFWDKKGKERRERTLEVLRTYGDSTTVLINRPIEQIAREGHHHHHH
soluble on expression in E. coli: soluble

DNKINIGLAVMKILESWGADTIYGIPSGTLSSLMDAMGEEENNVKFLQVKHEEVGAMAAVMQSKFGGNLGVTVGSGGPGASHLINGLYDAAMDNIPVVAILGSRPQRELNMDAFQELNQNPMYDHIAVYNRRVAYAEQLPKLVDEAARMAIAKRGVAVLEVPGDFAKVEIDNDQWYSSANSLRKYAPIAPAAQDIDAAVELLNNSKRPVIYAGIGTMGHGPAVQELARKIKAPVITTGKNFETFEWDFEALTGSTYRVGWKPANETILEADTVLFAGSNFPFSEVEGTFRNVDNFIQIDIDPAMLGKRHHADVAILGDAALAIDEILNKVDAVEESAWWTANLKNIANWREYINMLETKEEGDLQFYQVYNAINNHADEDAIYSIDVGNSTQTSIRHLHMTPKNMWRTSPLFATMGIAIPGGLGAKNTYPDRQVWNIIGDGAFSMTYPDVVTNVRYNMPVINVVFSNTEYAFIKNKYEDTNKNLFGVDFTDVDYAKIAEAQGAKGFTVSRIEDMDRVMAEAVAANKAGHTVVIDCKITQDRPIPVETLKLDSKLYSEDEIKAYKERYEAANLVPFREYLEAEGLESKYIK
soluble on expression in E. coli: soluble

MGSDKIHHHHHHMSASLQTADRVRRWRIEGELTTRTPLHMGSGSFEARQELRRAPQTDDIAKAKAVLLDSDQRPCLTGSGLKGAMLAWANAYLPDPERDRLLFGCEPDGDGKGQGGRLEFQTAFLSQNKENTSPSSSPTPFWMSDRRTDVDTGVRINRASGTALDKHLFYKEVVAPGTAFRMVLDLDLPACCTDKGHALVNRVLALLEAFNLSDDDRVPPLTLGAMTGRGHGRFAWRLTNLSRVTDASARTWIDKGAPGTWAAALTPVPDKGPWQTTAKATLEVVQSPATLVCEVTLTFDHRFLISEPARVVTEDEARTRSGKTRTAGIMPKVDGKGNAVLPTASIKGVLRSRAERILATLTGDASAFEHAPGRGPAGQDNPAADMMTDRCLPTSRLFGAASWRAALDVEPFRPLSGHTTVAHQELVAIDRFTGGVSGSAKYDIDAFHRPQFKGRLRLNLRRSRLEDVGLLVLLLRDLAEGDLSFGYGGTKGYGGTQAMVTVQVRGTTAGTQALPLPEETGGAGIDTPVSWSSIQDSALASPLREAVAAFRRLYCKGEAV
soluble on expression in E. coli: not soluble

MEAIDQLVGQWQKDGLSPSQVAEKFSKCVLYVTCEPCIMCASALSFLGIKEVYYGCPNDKFGGCGSILSLHLGSEEAQRGKGYKCRGGIMAEEAVSLFKCFYEQGNPNAPKPHRPVVQRERT
soluble on expression in E. coli: soluble

MSSNALYTDLSGYYDLMCSDINYQQQSASIHRLHQFLGNNGKQHLDLACGTGPHVRHFIDLGYQCSGLDINQPMLDMAMRRCPEAQFNLQDMTAFYLEQPVDLITCFLYSIHYSAGIERLKSCIASVHRALNDGGIFCFNSVDKHCIDNRLSIKHFAEFEGYHFAFESGWHYNGQGEKQSLNLSIAKRQQPFTQLTDFEADTSLHQTELWQDQHTMVATSFAELQALLAPYFEVHIFEHDYEKIVPWDLSSGNALFVCVKILEHHHHHH
soluble on expression in E. coli: not soluble

MFYAHNVDFRVFADFLYLLRVRNSGNVVLILDNASFHKSSYVLATASRLNINLLFLPPYSLDLNRIEFGRI
soluble on expression in E. coli: soluble
